According to article doi:10.1101/2025.10.11.676729:

Molecular target: Pyrococcus abyssi 70S ribosome (Pyrococcus abyssi (endogenous in P. abyssi)) (UniProt Q9V109)
Assay: cryo-EM structure

Chain of UniProt Q9V109 (Q9V109 whole entry, looked up): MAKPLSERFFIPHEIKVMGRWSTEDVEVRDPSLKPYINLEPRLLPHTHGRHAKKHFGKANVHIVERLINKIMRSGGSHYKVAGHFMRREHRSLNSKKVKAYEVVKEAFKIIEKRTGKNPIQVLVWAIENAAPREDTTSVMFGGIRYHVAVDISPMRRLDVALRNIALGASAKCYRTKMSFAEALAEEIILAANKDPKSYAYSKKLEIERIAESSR

B1: Hib, endogenous, bound to ribosomes isolated from Pyrococcus abyssi cell extracts (natural protein)
chain: MVGIQVQEVMTDRYAKIDINAPLSEAIGIIEKEDPDLILVFDDNVYKGVLTQDLIIRSHLKWDPTKAKVRDVYKPAPVVKPTDDLSHAAKLLLETDLRSLPVGENKAEILGVISDMALLERVVAEEFGKRKVEEFMTKDVITLGPDDTVAKALATMRDHGISRIPVVDEEGKLEGLVTLHDLIIRFIKPRFKAQYGELAGEKIPPFSMKLREAMIKGVITIMPEATIREAVSTMKDNNIDGLVVVDENNKVVGILTVKDLLLPISRMVEKEARFYLQLGGDASALSEFTRERIINDIKRFVDGYADLLGNEGIIYLYIRRFNEKFRGVHLYQARMRVVTDRGVFIARGETWGAIQAVHDAIRAIERQLLQKAELERDIRYAKRFIEKLELWR
With B1 the percent of 70S particles that contained Hib was 51.6%.
